System: NCCC(=O)O
Assay: purified protein
Conditions: pH 7.8; 25.0 °C

Question: For (Mycobacterium tuberculosis H37Rv), which Km is on record?
Answer: Its Km is 610 ± 10 µM.

Question: And the kcat/Km?
Answer: The kcat/Km was 2600 M⁻¹ s⁻¹.
